This passage reports activity (fold over no integrase) results from patent publication US20070190601.

Positions count from the first letter of the chain named.

Holding throughout (test): cell_activity
The subject of data set [1] is T1, int-NLS234 insertion PPKKKRKVE between G and S at position 234 (SEQ 61) (Streptomyces phage phiC31).
T1 sequence: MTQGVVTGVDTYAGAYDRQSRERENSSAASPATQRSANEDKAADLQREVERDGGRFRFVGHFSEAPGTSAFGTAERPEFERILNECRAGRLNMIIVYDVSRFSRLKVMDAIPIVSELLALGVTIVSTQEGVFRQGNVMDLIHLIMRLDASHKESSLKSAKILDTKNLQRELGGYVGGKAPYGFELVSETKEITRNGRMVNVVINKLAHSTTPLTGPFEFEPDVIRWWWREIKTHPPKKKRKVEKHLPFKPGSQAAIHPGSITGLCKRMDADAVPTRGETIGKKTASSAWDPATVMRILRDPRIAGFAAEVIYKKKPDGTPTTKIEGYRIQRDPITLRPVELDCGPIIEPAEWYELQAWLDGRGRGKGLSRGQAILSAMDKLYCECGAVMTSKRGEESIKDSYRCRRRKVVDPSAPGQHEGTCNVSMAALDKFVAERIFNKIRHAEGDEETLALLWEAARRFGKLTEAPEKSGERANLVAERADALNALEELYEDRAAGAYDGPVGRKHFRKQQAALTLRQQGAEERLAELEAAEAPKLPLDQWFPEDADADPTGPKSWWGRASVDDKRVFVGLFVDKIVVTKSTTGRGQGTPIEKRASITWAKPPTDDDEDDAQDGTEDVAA
To be noted: DF-1 cells; 84 colonies avg.

Data set [2] concerns T2, NLS-int-1 N-terminal MTQGVVTG replaced with MEPKKKRK (SEQ 57), joined at +1 V (Streptomyces phage phiC31).
T2 sequence: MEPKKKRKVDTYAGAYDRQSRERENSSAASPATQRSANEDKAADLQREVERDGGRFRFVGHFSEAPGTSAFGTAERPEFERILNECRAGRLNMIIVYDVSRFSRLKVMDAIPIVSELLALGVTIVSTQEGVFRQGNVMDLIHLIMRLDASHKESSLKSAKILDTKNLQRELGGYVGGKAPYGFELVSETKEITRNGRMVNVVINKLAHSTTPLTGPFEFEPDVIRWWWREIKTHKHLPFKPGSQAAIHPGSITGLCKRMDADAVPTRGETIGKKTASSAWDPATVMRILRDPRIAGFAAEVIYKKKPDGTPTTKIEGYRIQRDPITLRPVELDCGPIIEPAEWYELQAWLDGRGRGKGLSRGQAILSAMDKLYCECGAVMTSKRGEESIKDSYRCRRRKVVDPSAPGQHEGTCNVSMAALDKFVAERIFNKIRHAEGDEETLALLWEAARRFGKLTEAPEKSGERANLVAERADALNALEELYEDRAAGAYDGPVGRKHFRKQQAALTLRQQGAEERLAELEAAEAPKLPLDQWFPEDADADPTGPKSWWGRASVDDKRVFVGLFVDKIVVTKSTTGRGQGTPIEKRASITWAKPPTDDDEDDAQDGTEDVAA
To be noted: DF-1 cells; 2.5 colonies avg, background level; reflects recombination activity, not binding.

For data set [3], the system named is T3, phiC31 integrase (wild type, -8 ATG start) (Streptomyces phage phiC31).
T3 sequence: T2 sequence with E2T, P3Q, K4G, K5V, K6V, R7T, K8G
To be noted: integration of pCMV-pur-attB into chicken DF-1 genome pseudo-attP sites; 103.8 colonies avg.

Data set [4] relates to T4, 3rdGTG-int-NLS234 insertion PPKKKRKVE between G and S at position 234 (SEQ 61) (Streptomyces phage phiC31).
T4 sequence: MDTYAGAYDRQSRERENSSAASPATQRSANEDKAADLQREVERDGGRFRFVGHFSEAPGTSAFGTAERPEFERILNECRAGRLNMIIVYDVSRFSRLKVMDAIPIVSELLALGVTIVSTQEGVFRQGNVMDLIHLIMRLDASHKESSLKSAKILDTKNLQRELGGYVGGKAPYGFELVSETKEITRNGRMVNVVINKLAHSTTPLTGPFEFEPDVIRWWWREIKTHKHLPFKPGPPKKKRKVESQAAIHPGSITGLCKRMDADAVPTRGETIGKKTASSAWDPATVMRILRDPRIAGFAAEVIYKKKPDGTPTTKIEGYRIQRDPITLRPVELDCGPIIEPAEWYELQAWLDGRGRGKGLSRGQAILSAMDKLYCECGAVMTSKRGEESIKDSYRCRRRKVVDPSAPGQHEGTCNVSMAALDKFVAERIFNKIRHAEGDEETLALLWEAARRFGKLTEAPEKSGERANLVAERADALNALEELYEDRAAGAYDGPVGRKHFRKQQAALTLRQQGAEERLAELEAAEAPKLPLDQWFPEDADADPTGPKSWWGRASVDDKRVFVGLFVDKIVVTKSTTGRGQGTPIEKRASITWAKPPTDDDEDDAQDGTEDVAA
The note with it: DF-1 cells; 30 colonies avg.

Data set [5] has as its system T5, 3rdGTG-int (+1 start) (Streptomyces phage phiC31).
T5 sequence: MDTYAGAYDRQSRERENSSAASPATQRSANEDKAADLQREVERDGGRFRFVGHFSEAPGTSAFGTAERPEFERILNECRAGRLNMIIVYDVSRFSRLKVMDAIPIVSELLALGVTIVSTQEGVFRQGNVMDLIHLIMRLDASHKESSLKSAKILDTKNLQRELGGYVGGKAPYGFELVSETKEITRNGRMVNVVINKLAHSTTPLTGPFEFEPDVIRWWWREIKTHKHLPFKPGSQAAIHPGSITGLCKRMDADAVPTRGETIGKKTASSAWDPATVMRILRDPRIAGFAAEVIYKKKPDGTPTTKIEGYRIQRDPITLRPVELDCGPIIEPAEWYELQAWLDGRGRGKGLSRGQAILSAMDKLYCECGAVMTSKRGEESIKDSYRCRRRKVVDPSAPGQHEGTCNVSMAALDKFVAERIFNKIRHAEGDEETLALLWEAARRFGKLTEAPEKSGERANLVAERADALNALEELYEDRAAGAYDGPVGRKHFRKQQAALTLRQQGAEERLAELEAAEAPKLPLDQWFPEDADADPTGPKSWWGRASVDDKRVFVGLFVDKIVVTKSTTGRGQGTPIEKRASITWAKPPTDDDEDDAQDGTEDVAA
To be noted: DF-1 cells; 14 colonies avg.

In data set [6] the test system is T6, 3rdGTG-int-NLS PKKKRKV appended after A605 (Streptomyces phage phiC31).
T6 sequence: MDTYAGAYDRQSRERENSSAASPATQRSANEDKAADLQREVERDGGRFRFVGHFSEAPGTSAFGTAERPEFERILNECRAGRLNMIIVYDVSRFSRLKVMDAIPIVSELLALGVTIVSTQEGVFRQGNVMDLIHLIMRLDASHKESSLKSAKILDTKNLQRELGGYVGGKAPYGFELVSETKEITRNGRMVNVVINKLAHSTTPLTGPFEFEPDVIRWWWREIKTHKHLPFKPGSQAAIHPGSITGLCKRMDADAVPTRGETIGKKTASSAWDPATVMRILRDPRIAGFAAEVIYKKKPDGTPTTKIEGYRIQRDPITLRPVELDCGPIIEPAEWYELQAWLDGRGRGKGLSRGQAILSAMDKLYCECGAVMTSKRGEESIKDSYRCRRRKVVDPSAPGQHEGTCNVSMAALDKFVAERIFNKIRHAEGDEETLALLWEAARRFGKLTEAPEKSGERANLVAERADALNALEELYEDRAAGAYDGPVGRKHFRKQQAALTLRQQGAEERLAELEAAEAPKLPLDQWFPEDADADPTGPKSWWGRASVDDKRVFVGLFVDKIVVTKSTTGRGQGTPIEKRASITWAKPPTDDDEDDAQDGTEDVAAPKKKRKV
To be noted: DF-1 cells; 10 colonies, one experiment.

The subject of data set [7] is T7, c-myc-NLS-int N-terminal MTQGVVT replaced with MAPAAKRLKLDSL (SEQ 59), NLS joined at -1 G (Streptomyces phage phiC31).
T7 sequence: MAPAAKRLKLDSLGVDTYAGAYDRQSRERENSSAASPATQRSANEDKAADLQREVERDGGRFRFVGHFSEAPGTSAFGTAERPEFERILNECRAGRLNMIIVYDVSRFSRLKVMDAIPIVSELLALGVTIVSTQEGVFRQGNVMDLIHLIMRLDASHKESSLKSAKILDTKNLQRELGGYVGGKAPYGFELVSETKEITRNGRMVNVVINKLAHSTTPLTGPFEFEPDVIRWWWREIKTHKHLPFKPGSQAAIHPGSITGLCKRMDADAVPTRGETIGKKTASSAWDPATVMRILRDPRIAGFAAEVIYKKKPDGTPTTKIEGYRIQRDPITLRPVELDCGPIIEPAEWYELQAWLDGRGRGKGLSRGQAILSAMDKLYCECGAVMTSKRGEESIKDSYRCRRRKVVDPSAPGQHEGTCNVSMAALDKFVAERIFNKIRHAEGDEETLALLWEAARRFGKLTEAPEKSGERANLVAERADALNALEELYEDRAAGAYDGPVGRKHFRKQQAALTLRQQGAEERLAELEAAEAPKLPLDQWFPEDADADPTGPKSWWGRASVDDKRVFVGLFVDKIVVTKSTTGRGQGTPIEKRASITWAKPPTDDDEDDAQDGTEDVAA
To be noted: DF-1 cells; 56.2 colonies avg.

Data set [8] deals with T8, NLS-int-2 MEPKKKRKV added upstream of -8 M (SEQ 58) (Streptomyces phage phiC31).
T8 sequence: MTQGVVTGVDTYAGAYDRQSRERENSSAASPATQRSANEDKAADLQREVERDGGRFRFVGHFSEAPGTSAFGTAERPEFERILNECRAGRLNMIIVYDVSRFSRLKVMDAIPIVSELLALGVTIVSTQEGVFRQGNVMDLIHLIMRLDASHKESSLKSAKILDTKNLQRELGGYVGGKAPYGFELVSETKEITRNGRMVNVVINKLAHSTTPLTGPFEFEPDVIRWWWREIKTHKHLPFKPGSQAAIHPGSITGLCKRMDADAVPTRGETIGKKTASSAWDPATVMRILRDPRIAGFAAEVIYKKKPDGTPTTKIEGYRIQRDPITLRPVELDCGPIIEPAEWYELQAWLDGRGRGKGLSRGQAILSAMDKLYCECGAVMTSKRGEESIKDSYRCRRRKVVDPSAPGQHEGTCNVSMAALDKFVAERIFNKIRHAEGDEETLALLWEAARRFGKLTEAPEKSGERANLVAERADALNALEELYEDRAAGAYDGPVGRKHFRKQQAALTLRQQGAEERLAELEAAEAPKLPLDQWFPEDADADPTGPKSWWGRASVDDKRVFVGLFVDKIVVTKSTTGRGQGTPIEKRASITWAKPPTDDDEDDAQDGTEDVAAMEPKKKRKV
The note with it: DF-1 cells; 6 colonies avg.

phiC31 attB (donor plasmid): the activity (fold over no integrase) was 32.3 in data set [1]; 1 in data set [2]; 39.9 in data set [3]; 11.5 in data set [4]; 5.4 in data set [5]; 3.8 in data set [6]. Besides, the activity (fold over no integrase) in data set [7] stood at 21.6; in data set [8] it was 2.3.
